Laboratory results from article PMC7563477, “N-Terminal Segment of TvCyP2 Cyclophilin from Trichomonas vaginalis Is Involved in Self-Association, Membrane Interaction, and Subcellular Localization” (Biomolecules, 2020).

Target: T1, T. vaginalis cyclophilin 2 (TvCyP2), recombinant with C-terminal His-tag (Trichomonas vaginalis, UniProt A2DLL4 1-186)
T1 construct: TvCyP2 cyclophilin of Trichomonas vaginalis, with its N-terminal segment; secondary structure is described up to residue 184; theoretical molecular weight 20.947 kDa; 15N-labelled for the NMR experiments; Cloned into pET-29b by NdeI and XhoI; also called TvCyP2_apo1; TvCyP2_apo2; source: E. coli BL21(DE3), purified (Q-sepharose flow-through, Ni-NTA; SEC superdex-75 for crystallization and …)
Assay: NMR titration; 2D 1H-15N HSQC of the 15N-labelled protein without and with unlabelled TvCyP2(3-18) peptide (molar ratio 1:5); 800 MHz, 310 K; 20 mM NaH2PO4, 50 mM NaCl, pH 6.0, 10% D2O
Details: both partners purified

B1: TvCyP2_(3–18) peptide (peptide)
peptide: AFFATRVISAPKVTKK
notes: residues 3-18 of TvCyP2 of Trichomonas vaginalis (N-terminal segment); source: synthetic peptide, HPLC-grade, bought: Yao-Hong Biotechnology
- binding result: binds
